Results reported in PMC4198471 (Biochimica et biophysica acta, 2014).

Biological target: T1, Trx-RhopH3-C (P. falciparum RhopH3 amino acids 620-897 with Trx and His tags) (Plasmodium falciparum, UniProt Q8I395 620-897)
T1 sequence: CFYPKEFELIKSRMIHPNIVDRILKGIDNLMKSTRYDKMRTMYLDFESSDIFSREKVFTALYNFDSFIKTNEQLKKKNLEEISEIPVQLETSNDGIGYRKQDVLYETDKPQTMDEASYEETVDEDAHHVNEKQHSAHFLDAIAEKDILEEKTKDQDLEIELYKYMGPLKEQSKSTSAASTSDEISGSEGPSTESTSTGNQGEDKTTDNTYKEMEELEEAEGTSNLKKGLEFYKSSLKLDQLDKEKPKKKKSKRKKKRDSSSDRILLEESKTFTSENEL
Experiment: ELISA

GMPWLSATTVRSVTHANALTVMGKASTPGAAAQIQEVKEQRI (domain or fragment, UniProt P02730 720-761, looked up) [GST-5ABC (5ABC region of human erythrocyte band 3, amino acids 720-761, as GST fusion protein)]
Kd: 183 ± 0.111 nM
